These are literature values, as cited in paper PMC6292179.

pKd: −log10 of the molar value.

For the series, the target named is IL-18BP (Homo sapiens) (UniProt O95998).
IL-18BP (Homo sapiens), sequence (O95998 31-194): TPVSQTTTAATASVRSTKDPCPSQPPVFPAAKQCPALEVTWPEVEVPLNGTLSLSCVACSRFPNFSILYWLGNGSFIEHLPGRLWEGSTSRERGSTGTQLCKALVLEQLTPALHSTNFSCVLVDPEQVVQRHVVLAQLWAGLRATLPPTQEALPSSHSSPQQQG

IL-18, sequence (Q14116 37-193): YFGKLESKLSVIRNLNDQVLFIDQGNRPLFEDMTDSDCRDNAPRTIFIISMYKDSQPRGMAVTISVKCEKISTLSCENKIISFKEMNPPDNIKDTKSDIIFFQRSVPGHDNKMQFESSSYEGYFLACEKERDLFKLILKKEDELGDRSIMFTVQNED

For orientation: pKd means the negative decadic logarithm of the Kd, by convention in mol/L. In the case of IL-18 (from UniProt Q14116), the pKd is 9.40.
